{"source": "patent US20220275357A1", "about": "“CAPSULE PROTEIN AND MULTIMERIC COMPLEX COMPOSITION THEREOF, AND PHARMACEUTICAL COMPOSITION USING SAME” (UNIVERSITY PUBLIC CORPORATION OSAKA, priority 2019, published 2022)", "molecules": {"B1": {"name": "mutant L-PGDS: human L-PGDS variant SEQ ID NO: 2 with C45A and C147A substitutions, GS added to N-terminus (protein)", "chain": "GSAPEAQVSVQPNFQQDKFLGRWFSAGLASNSSWLREKKAALSMAKSVVAPATDGGLNLTSTFLRKNQCETRTMLLQPAGSLGSYSYRSPHWGSTYSVSVVETDYDQYALLYSQGSKGPGEDFRMATLYSRTQTPRAELKEKFTAFAKAQGFTEDTIVFLPQTDKCMTEQ", "modifications": "N-terminal GS added; Enzyme inactivation Mutant"}, "B2": {"name": "barrier-attached mutant (protein)", "chain": "B1 chain with M74W", "modifications": "Barrier Mutant"}}, "assay_type_in_all_cases": "physicochemical", "key": {"[1]": {"experiment": "Size measurement by small-angle X-ray scattering (SAXS)", "conditions": "25° C.; for Rg: radius of gyration from Guinier region", "procedure": "Size of the obtained octameric composition was measured by small-angle X-ray scattering (SAXS). For comparison, size of the mutant L-PGDS was also measured.\nSAXS data collection was carried out at BL40B2, a beamline in the SPring-8 synchrotron radiation facility (Sayo-gun, Hyogo). The X-ray wavelength was tuned to 1.000 A (angstrom), the sample-to-detector distance was set to 2.193 m, and the experiments were performed at 25° C. The exposure times for each measurement were 20 to 50 s. Scattering intensity was recorded with PILATUS-2M (RIGAKU, Tokyo) as a detector.\nA sample cell with a thickness of 3.0 mm was used to maximize scattering of X-ray. The windows of the cell were made of 0.02 mm thick quartz plates. To avoid systematic errors, the inventor measured the sample (protein) and buffer solutions alternately. 25 μL of a sample solution was placed in the cell for its data collection. The solution was removed from the cell; and the cell was then washed 3 times with a buffer solution before data collection of the next sample solution.\nTwo-dimensionally recorded scattering patterns of the protein sample and the buffer solutions were transformed to a one-dimensional profile by circular averaging. Contributions to scattering intensities from the solvent were eliminated from the raw data of the sample solutions by subtracting the intensity profile obtained for the buffer solution. Scattering profiles in the small-angle region were analyzed by Guinier's approximation for monodispersive systems: The scattering intensity (I (S,C)) as a function of reciprocal vector (S) and protein concentration (C), is expressed by the forward scattering intensity (I(0,C)) and the radius of gyration Rg(C) (See the following formula (1)).\nwherein, 2θ represents the scattering angle relative to the incident beam, and λ represents the X-ray wavelength.\nThe radius of gyration Rg for each sample solution was calculated from Guinier region in its scattering profile. […]"}, "[2]": {"experiment": "Drug releasing capacity: equilibrium dialysis of SN-38-loaded capsule proteins", "procedure": "(§1) With a dialysis membrane (Dialysis Membrane, Size 27 Wako molecular weight cut-off: 14,000), each 5 mL of samples was each dialyzed against 150 mL of PBS as an external solution in an incubator at 37° C. for 72 hours. Each of the samples included the solution of SN-38/mutant L-PGDS, SN-38/barrier-attached D-clip mutant or SN-38/targeting barrier-attached D-clip mutant. The samples were prepared to contain 50 uM of SN-38 and 50 uM of the respective capsule proteins.\n(§2) At 0, 1, 3, 6, 8, 12, 24, 36, 48, 60, and 72 hours after the start of dialysis, 500 μL of the external solution was sampled, and the same amount of PBS was added instead. SN-38 concentration in the sampled external solutions was measured with a fluorescence spectrophotometer F-7000 (HITACHI; excitation wavelength: 365 nm; measuring wavelength: 380 to 600 nm; and monitoring temperature: 37° C.).\nSubsequently, drug release function in response to a reducing environment of the barrier-attached D-clip mutant and the targeting barrier-attached D-clip mutant was evaluated by equilibrium dialysis method in the same manner as described above. PBS and 10 mM DTT/PBS solutions were used as the external solutions for dialysis. The external PBS and 10 mM DTT/PBS solutions simulated oxidizing and reducing environments, respectively.\nThe horizontal axis represents reaction time (hr), and the vertical axis represents SN-38 concentration (nM). Error bars represent the standard error of the mean, or mean±standard error (n=3). The abbreviations or symbols in the figure have the following meanings: “SN-38/L-PGDS” or “●” represents SN-38/mutant L-PGDS; “SN-38/Capsule” or “▴” represents SN-38/barrier-attached D-clip mutant; and “SN-38/Cap-sCRGDK” or “▪” represents SN-38/targeting barrier-attached D-clip mutant. The symbols “Δ” and “□” with“+10 mM DTT” represent the results of the pharmaceutical compositions, i.e.“SN-38/Capsule” and “SN-38/Cap-sCRGDK” in the presence of 10 mM DTT, respectively. The addition of DTT (Dithiothreitol) allows the solutions to have a strong reducing environment. […]"}, "[3]": {"experiment": "Equilibrium dialysis of dipyridamole-loaded capsule proteins (holding force)", "conditions": "dipyridamole encapsulated instead of SN-38, external solution PBS, FIG. 10", "procedure": "as §1, §2\nDipyridamole is a poorly water-soluble antianginal drug. The external solution was PBS. Referring to FIG. 10, the horizontal and the left vertical axes represent the reaction time (hr) and dipyridamole concentration (nM), respectively. In addition, the right vertical axis represents the release rate (%), or a value converted from the concentration on the left vertical axis."}}, "note": "Where a chain is given by its changes, count along the chain named. In names and notes the source's numbering stands."}
{"molecule": "B1", "values": [{"measurement": "Dmax", "setting": "[1]", "value": 4.75, "unit": "nm"}, {"measurement": "Rg", "setting": "[1]; listed as Monomer", "value": "1.8 ± 0.04", "unit": "nm"}, {"measurement": "Rg", "setting": "[1]; listed as monomer (mutant L-PGDS)", "value": "1.8±0.04", "unit": "nm"}, {"measurement": "concentration of SN-38 in the external DTT/PBS solution", "setting": "[2]; 10 mM DTT/PBS, reached within shorter reaction time, then almost a plateau, FIG. 9(a)", "value": 2000, "unit": "nM"}, {"measurement": "dipyridamole concentration in external solution", "setting": "[3]", "value": "increased over the reaction time"}]}
{"molecule": "B2", "values": [{"measurement": "SN-38 concentration in the external DTT/PBS solution", "setting": "[2]; 10 mM DTT/PBS, at the first 48 hours of dialysis, FIG. 9(b)", "value": "approximately 2.0 μM"}, {"measurement": "concentration of SN-38 in the external solution PBS", "setting": "[2]; PBS, at the end of the monitoring period, FIG. 9(b)", "value": "≤ 1000", "unit": "nM"}, {"measurement": "dipyridamole concentration in external solution", "setting": "[3]", "value": "increased only to the vicinity of the detection limit"}]}
